Results published in patent US10624964, “Methods and compositions for stimulating immune response using potent immunostimulatory RNA motifs” (The Trustees of the University of Pennsylvania).

Target: T1, RIG-I full length (UniProt O95786 O95786:1-925)
T1 sequence: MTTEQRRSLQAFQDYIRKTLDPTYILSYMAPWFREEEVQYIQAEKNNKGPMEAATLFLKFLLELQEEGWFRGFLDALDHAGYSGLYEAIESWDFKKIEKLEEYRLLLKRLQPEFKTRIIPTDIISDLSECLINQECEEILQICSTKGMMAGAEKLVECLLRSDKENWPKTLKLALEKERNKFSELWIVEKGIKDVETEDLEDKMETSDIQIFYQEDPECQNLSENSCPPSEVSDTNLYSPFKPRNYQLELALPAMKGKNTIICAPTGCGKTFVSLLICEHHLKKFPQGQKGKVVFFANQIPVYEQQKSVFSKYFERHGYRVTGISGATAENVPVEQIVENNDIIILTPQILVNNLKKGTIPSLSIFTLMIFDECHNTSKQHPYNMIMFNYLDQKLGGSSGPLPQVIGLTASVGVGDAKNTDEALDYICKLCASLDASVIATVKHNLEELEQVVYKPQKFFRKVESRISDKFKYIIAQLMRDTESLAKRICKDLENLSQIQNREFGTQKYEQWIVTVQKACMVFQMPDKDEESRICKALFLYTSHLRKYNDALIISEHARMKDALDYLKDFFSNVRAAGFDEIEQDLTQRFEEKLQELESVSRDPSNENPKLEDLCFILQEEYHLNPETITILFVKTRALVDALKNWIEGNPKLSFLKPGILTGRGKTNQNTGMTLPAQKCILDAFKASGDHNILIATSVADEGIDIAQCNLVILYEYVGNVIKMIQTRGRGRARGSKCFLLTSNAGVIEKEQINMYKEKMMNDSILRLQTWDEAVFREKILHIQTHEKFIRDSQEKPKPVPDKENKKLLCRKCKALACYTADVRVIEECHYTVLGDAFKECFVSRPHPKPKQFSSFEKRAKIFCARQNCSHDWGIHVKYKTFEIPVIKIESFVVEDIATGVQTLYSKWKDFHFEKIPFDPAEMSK
Test: EMSA; with ATP; 6 pmol RNA, 0-20 pmol RIG-I; affinity equivalent to poly U/UC
Settings: stem-loop motif 70-114, complementary 5' and 3' ends

B1: DVG-268 ivtRNA (ssRNA)
RNA: ACCAGACAAGAGUUUAAGAGAUAUGUAUCCUUUUAAAUUUUCUUGUCUUCUUGUAAGUUUUUCUUGCUAUUGUCAUAUGGAUAAGUCCAAGACUAUCUUUAUCUAUGUCCACAAGAUUGGUAACUGGGUCAUUCCCUGACCAGAAGUUUGAAGCAAGACUUCCCGGUACCUGGAAGUCUUGGACUUAUCCAUAUGACAAUAGUAAGAAAAACUUACAAGAAGACAAGAAAAUUUAAUAGGAUACAUAUCUCUUAAACUCUUGUCUGGU
modifications: 5'-triphosphate (T7 transcript)
B1: binds.
